Assay results taken from a protein production outcome set (Wang et al. 2014).

Assay: label from the status in PepcDB records

| Sequence | protein production |
| --- | --- |
| LLHGDFELAVPGGPVAAYYAAPAGREQLPIVLVVQEIFGLHEHIKDVCRRLAHDGYLAVSVNLYQRQGDASRYDNIPGLVAELVSKVPDEQVHADLDASLAWAAAHGGDGARVGVTGFCWGGRTTWMYAARNPAVKAGVAWYGRLSSGHGPLIKQVPLDVAGSLHAPVLGLYGGKDESIPLDDVRAMEARLQQGGAPAQASRIVVYPQAGHAFLADYRPSYRAADAQDGWRRMLDWFALYL | not failed |
| MELRIMTGKLILLGFIIYQCVFSESDNLPWLVFSLLVYVCINLGIAILPKGKTKKLFIIISVIISIVSYAEVHPLFILFLPFTLCEGAADFGLPKWAVLAASIVPVLFINESISAVYALTAAFQFLLYWAASHDAARIEKLEHHIDQTRRDLQKLTNMLRENKEFIRQSEYTYKLEERNRLSQEIHDKIGHSMTGALIQLEAAKRVLDIDKEKASELLQNAINISKDGIENIRLTLKSVKPPSEQMGIHRLRLFIDECSAQYHMNISFLHKGDLDVISQIQWKIIFENITEALTNSVKYAEATHVSICIHVLNTLIKAEVKDNGKGRQKIKKGMGIIGMEERAASVNGKVIVDGSNGFSVTTLLPKHE | failed |
| MIIRGIRGARINNEIFNLGLKFQILNADVVATKKHVLHAINQAKTKKPIAKSFWMEILVRASGQRQIHEAIKIIGAKDGNVCLICEDEETFRKIYELIGGEIDDSVLEINEDKERLIREIFKIRGFGNVVERVLEKIALIELKKE | not failed |
| MKSYMTQRLDEYRDGNEDKGRLLVSCPDQPGIVSAVSAFLFEHGANIIESNQYTTDPEGGRFFLRIEFDCAGIREKKSSLQAAFASVAEKFDMTWSLTLASELKRVAIFVSKNLHCLHELIWEWQTGNLMAEIAVVISNHEEARELVERLNIPFHYMKANKDIRAEVEKKQLELLEQYDVDVIVLARYMQILTPDFVSAHPNRIINIHHSFLPAFIGANPYKRAYERGVKLIGATSHYVTNDLDEGPIIEQDIKRVDHRDNAETLKNIGRTIERSVLARAVKWHLEDRVIVHENK | not failed |
| TNWASGEDDHVVARAEYDFVAVSDEEISFRAGDMLNLALKEQQPKVRGWLLASLDGQTTGLIPANYVKILGKRRGRKTIE | not failed |
| GPVPTPPDNIQVQENFNISRIYGKWYNLAIGSTCPWLKKIMDRMTVSTLVLGEGATEAEISMTSTRWRKGVCEETSGAYEKTDTDGKFLYHKSKWNITMESYVVHTNYDEYAIFLTKKFSRHHGPTITAKLYGRAPQLRETLLQDFRVVAQGVGIPEDSIFTMADRGECVPGEQEPEPILIPRV | not failed |
| MWVDGMAKVVEVGRICVKTRGREAGRKCVIVDIIDENFVLVTGPKSLTGVRRRRVNIDHIEILDKKVDIQKGASDEEVLKALEEAGLADFMREPVRIARITPFTLLEHHHHHH | not failed |
| LESSMNKFHALFDSVMDACVIIDKRGVIKECNAALQTLLGVEDKTALVGTSLTQFHLADTFMGSAVQIAQSVEDVLKQGLLKFEADITDSQGQSIPAEVTLKSIELNTERFVLATYHNLAERRLVDRLIRHERNLLKNVLGMSPIGVWVCVNGTCRYVNAQMTLM | failed |
| MLTDRELLILEEIVREYTENGQPIGSKTLMNNLPVKVSSATIRNDMAKLEEMGLIEKMHSSSGRIPSLMGYRYYVDHLLSPKKLNQSEAQQIQKGLGMHFREVDDIVRTSAEMLSNLTHYTALTLKPDQKDATLDGFRMVPLGGNQVMLILVSSNGDVTSQQFSIPRGMNSETVERVLRIMNDRLIGETLDQVYYHLKTDIPKIVEHYLHSNDGIIDIFENVVAQSSQDRYFIGGKLNILNFSKNVDVSSIRGLLTLFNENDQLDGLLGNNQSDLDVKIGDELSNALLKDFSLITATYDVGSRGKGLIAILGPTSMQYSKTLGLLDTFRDQLSNRMLEYYKHLDDS | failed |
| MYKLGVFLLATLLSANTQKVSDIAKDIQHKETLLKKTHEEKNQLNSRLSSLGEAIRSKELQKAEMERQMIALKKSLEKNRNESLAQEKVLTNYRKSLDHLQKKRSFLQKRVFDTLLQDFLFSQALKGQNLASSNDVVLQVAFENLHQSTLSKMSQLSQEEKELNTQALKVKNSIQKISSIIDEQKTREVTLKSLKTEQDKLILSMQKDYAIYNQRLTLLEKERQNLNALLKRLNIIKQNRENEEKVSLKKSSQALEVKQVASSYQNINTTSYNGPKTIAPLNDYEVVQKFGPYIDPVYNLKIFSESITLVSKTPNALVRNVLDGKIVFAKEINMLKKVVIIEHKNGIRTIYSQLDKIAPTIKSGMRIQKGYVLGRIDQRLGFEVTMREKHINPLELIARN | failed |
| MTERFDCHHCNESLFGKKYILREESPYCVVCFETLFANTCEECGKPIGCDCKDLSYKDRHWHEACFHCSQCRNSLVDKPFAAKEDQLLCTDCYSNEYSSKCQECKKTIMPGTRKMEYKGSSWHETCFICHRCQQPIGTKSFIPKDNQNFCVPCYEKQHAMQCVQCKKPITTGGVTYREQPWHKECFVCTACRKQLSGQRFTARDDFAYCLNCFCDLYAKKCAGCTNPISGLGGTKYISFEERQWHNDCFNCKKCSLSLVGRGFLTERDDILCPDCGKDI | failed |
| MAGSVGEETEPEWIKRVKLEGAVPCLKPDDNCKNGWTTPSPDTFMVRGPKYFSDKVKIPAGDFLLKPLGFDWIKGPKKLSEILSYPSSRIRKVIDEEFQKDGTKPFVWAFNLQLPHKDNYSAVAYFVTTEPILEGSLMDRFLKGDDGFKKSRLKLIANIVKGPWIVRKAVGEQAICVIGRALSCKYVSGENFVEIDVDIGSSMVASAIVHLAFGYVTTLTVDLAFLIESQTEAELPEKLLGAVRFSELQTESATSIELSSSTSNDQWDQTTSERSSWWKSIGNGFSNLLNQDTANMNNTSHGDIQKDEHVQKQ | failed |
| MPERVKRKRYALVGTGNRGTTMWGRELLAGWSDYVELVGICDLNLMRAERARAMMGSNAPLYDDFDRMMVEQRPELVIVCTPDDTHDDIIIRALEGGADVISEKPMTTTPEKIDRIRAAEAKSGRRVDVSFNYRFSPTAARIKELIDDGAIGTVTSVDFHWYLDNQHGADYFRRWHAFTEHSGSLFVHKATHHFDLLNWYLDSDPVEVKGFGQLLHYGKNGPFRGTRCRTCPHKDECDYFMDLGADPFLDALYEDPSSIDGYMRDACVFREEIDIPDTMSASIRYASGVQVSYSLNTYMPIEGHHIAFNGHKGRIEMRQYEKQPWAEPPADEILVVKSFGGGVERIWVPHEPGGHYGGDNRMRDMIFKPGSNDRLRQRAGSRAGAMSVLCGVAALKSARDGGSQPIKSLPL | failed |
| MSNYTESLQYLDSYISARVPVIGMRTIEQQRALRLLREAATQPRRSSMPFWIYTRATGLRDLRTNAPVQDDRSLTGAMDFAAAQFTSRANATVVFVDPDDLGGDTPITRHIAELARLADSNMGSIVLITDTPIWSGLQRLGMSLHLDLPDADEMYGILSGFLGDHHGHIPIEWDEADGRRAAEFLLGVTEAECINLMATIAAKGSIQKADVLGLAQAKDRIFSDLTGLERVQLKEADYTVGGLSSLREWLQRKHWQLHEDLRDSALRPPRGVLLVGVPGCGKSLSAKAIAHEWQLPLYRLDMGAIHGKYLGESEGRFREALAMADRVAPCVLWIDEIEKGLAGRDDGSGVPQRIIGQFLFWLQESQSRAFVVATANDIRSLPPELLRKGRFDELFFVDLPDAQDRKEIIELYYQRYLQGEPDRDQVDQLVDLSEGFAGSDIESALHDVGLEARRIGGADGLKASFLRDTFANTVPMSRVNPEQIEEIRAWGRERALPAGRSTVSAAPGGAKPSRRIVFMDD | failed |
| MECRPLCIDDLELVCRHREAMFREAGRDALTLAAMQDPFRDWLLPRLADGSYFGWVMEEGGAPLAGIGLMVIEWPPHPSHPLQDKRGYILNLYVDPSHRERGIGQALMNRAEAEFAERGIAFAVLHATEMGQPLYARMGWSPTTEMSKPIAG | not failed |
| MGHHHHHHSHMGKITFYEDRAFQGRSYETTTDCPNLQPYFSRCNSIRVESGCWMLYERPNYQGQQYLLRRGEYPDYQQWMGLSDSIRSCCLIPQTVSHRLRLYEREDHKGLMMELSEDCPSIQDRFHLSEIRSLHVLEGCWVLYELPNYRGRQYLLRPQEYRRCQDWGAMDAKAGSLRRVVDLY | not failed |
| KEKDTIAAEHKQEASVLLNLHRNKINYLIGETMARMTSLSIAIDRPVDIKKMQSILEKTFDSEPRFSGLYFLNAKGDVTASTTELKTKVNLADRSFFIKAKETKKTVISDSYSSRITGQPIFTICVPVLDSKRNVTDYLVAAIQIDYLKNLINLLSPDVYIEVVNQDGKMIFASGQASHAEDQKPVSGYLDDISWNMKVYPNPVTIEEL | not failed |
| ETTMPASRSLVDKPVHRFEIIPWNGKKVGYLMYNEFKAGPTTDSQAYNDDLRRAFRDFQTGGVNEFVLDLRYNTGGSLDCAQLLCTMLAPADKMNQLLALLRYSDKRVEANQDLTFNPELIQSGANLNLSTVYVLTTNATRGAAEMVINCLNPYMKVVLIGTKTAGEYVATKPFVHPTDRFILNLVVCNVYNAEEKSDYATGFKPTYEYNEDSYLSTYLPFGNTNETLLNAALKIMSGITDK | failed |
| MKVKKYDQFNESCYQAQLDNGLTVTLLPKAGYHKTYATFTTNYGSIDNTFVPAGSTEMQRFPDGIAHFLEHKMFEKADHDAFQIFGQYGASANAFTSFTKTSYLFSATRHLQDNLMTLLDFVQDPYFTPATVDKEKGIIGQEIEMYDDDPSWRLYFGMIGNLYPNHPLQYDIAGTTESIAKITADDLYAAYRTFYHPENMTLFVVGNFDPDEVLGWITTNQATKKFAAFQPIERKIPETATDGHDIIPYRTIDMPVNRAKSIVGVKGLLPIEAGAAALKYRAAVNVLLELLFGDTSADYLRLYDQGIIDDTFGYDFELQSGFNFVTFSGETDDPAQFDAAIIDVLENWRTAVVGQEAALALVKKEMIGRVVFMANSLEAIANRYDQRLFGTATIFDEPGIIDQLTLADLQTVAEQLLTSQAISEYQIRPQAKS | failed |
| YSVTVKWGKEKFEGVELNTDEPPMVFKAQLFALTGVQPARQKVMVKGGTLKDDDWGNIKMKNGMTVLMMGSADALPEEPSAKT | not failed |
| MMKTMDIIIPREFVSDDQYLLQKLCVVNNDFVKEGEILALIESSKSVIDVTSPADGYVYFFSDEGDIVSVGERLALLASTKEALQVEIENSNKNSQRRKESETKSEDVSLSGVRCSKKALLLMKQHNIDVGAFDGLGMVTAQDVEHYLSSREKAVKATVAPSSVNRQKIIILGGGGHSKVCIDILRQAQSFTIAGILDSIQDIGAEVLGIPVIGRDTMPELLKTRESGISLAVNGIGLIPDHRNRCKLFERLLEAGFHLPNLIHPKASIEPSAKLGEGNQIMAGAIIGSDVTVGNYCLINSGVVVSHDCIIDDHVHLAPGALLAGAVRVGRNSLIGMGVTIYAKVTIGSNVVIANGANVFHDVPDNTVVKI | failed |
| MRFHLPGPEDTVRLGRALAKALLQIDGLRVVLLAGTLGSGKTTMTRGLVAELPGGGMAEVSSPSFNICNLYPTTPPTAHFDLYRLEGNEPDDALLDLIDEGESIILIEWAEHLPEYALPPVWLRLAWHAAGEGRIVEAHGNGAPALVALDMVAAGVPDLVQP | failed |
| MGSKPSSLADEVAIIVEQVDKVMGMVFWCPLYWESIELLAKDEVSRAIFYGLTEGCKLDYLKYKTKASMVPEMTRFYS | not failed |
| MGKPVTNEAKGVYVMSVLPNMPAAGRLEAGDRIAAIDGQPINTSEQIVSYVREKQAGDRVRVTFIRDRKQHEAELVLKPFPHHPNQIGLGVTLRTLEHHHHHH | not failed |
| MIVGRDGVGVVEHAEQGPRIAVAVVTMGNRPAEVDALLASVAKQDLPPARIVIVGNGCPLPEFARRLDLPGEVTGIEVDENLGCPGGRNVALAKLREFGDVDVVVELDDDGLLVDADVLRRVRDLYAADPRLGIVGFRIADENGETQRRHVPRVGKSDPLRGGPVTGFLGGGHALSMAMLARTGDWPAEFFFAHEETDLAWRATDAGWTILYAPELLLQHPKTSPARHAIYHRVTARNRVWLARRRLPLPLIPVHLGIWIAVTLVRTRSAGGLRAWFGGFMEGVRTSGGERRPMRWRTVWRLTRLGRPPVILEHHHHHH | failed |
